Results from article doi:10.1101/2024.01.03.573942 (bioRxiv, 2024).

Assays:
[1] = biological target: ModTad2 (Tad2 homolog encoded by a prophage of Myroides odoratus) (prophage of Myroides odoratus); experiment: crystal structure
crystal structure = biological target: the molecule itself; experiment: crystal structure

Row | Molecule | stoichiometry N [1] | stoichiometry N (crystal structure)
1 | ModTad2 (Tad2 homolog encoded by a prophage of Myroides odoratus) (natural protein) | 4 | 
2 | Macro domain of ThsA(amylo) (residues 83-297), type II Thoeris of Bacillus amyloliquefaciens Y2 (domain or fragment, UniProt I2C645 83-297, looked up) NNITLNLNGSEVEIKKGDIFEVPRNNYKVIAFNEYFDTQVDDVIIARETLNGQYIKRYYSHQDITELDQKIKDDVKLKIEEKNVERPFGGKTTRYSLGSVFKDMDFFLVAFSKFDRENRAQLKLNEYASCMLNVWNEINTLHASKEVFIPLLGSGITRHVDSDVGVNELLHIMLWTFQISKVKFREPAKVTILLYKNDHKKINFYKLKEFEKNGL |  | 2
